According to US20180086841A1 (Merck Sharp & Dohme, published 2018):

B1: hCD27.15-6B (antibody, human IgG4 S228P, kappa, V domains shown)
VH: QVQLVQSGAEVKKPGASVKVSCKASGFIIKATYMHWVRQAPGQRLEWMGRIDPANGETKYDPKFQVRVTITADTSASTAYMELSSLRSEDTAVYYCARYAWYFDVWGQGTLVTVSS
VL: DIQMTQSPSSLSASVGDRVTITCRASENIYSFLAWYQQKPGKAPKLLIYHAKTLAEGVTSRFSGSGSGTDFTLTISSLQPEDSATYYCQHYYGSPLTFGQGTRLEIKR
notes: also called hCD27.15 (humanized 6B); humanized hCD27.15 (human IgG4, Clone 6B)
B2: hCD27.131A (mouse parental 131A) (antibody, mouse IgG1, V domains shown)
VH: QIQLVQSGPELKKPGETVKISCKASGYTFTNYGMNWVKQAPGKGLKWMGWINTNTGEPTYAEEFKGRFAFSLETSATTAYLQINNLKNEDTATYFCAREGDAMDYWGQGTSVTVSS
VL: QIVLTQSPAIMSASPGEKVTMTCSASSSVSYMHWYQQKSGTSPKRWIYDTSKLASGVPARFSGSGSGTSYSLTISSMEAEDAATYYCQQWNSYPFTFGSGTKLEIK
notes: Mouse IgG1 antibody; also called mouse hCD27.131A

Key:
K17A = molecular target: T1, K17A; assay: flow cytometry on CHO-K1 transfectants;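 note: Anti-hCD27 antibodies tested on transiently transfected CHO-K1 cells bearing hCD27 alanine mutants, 30 min at 4 °C primary incubation, FITC readout excluding debris, dead cells and doublets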
T1 construct: also called hCD27 K17A
T1 receptor chain: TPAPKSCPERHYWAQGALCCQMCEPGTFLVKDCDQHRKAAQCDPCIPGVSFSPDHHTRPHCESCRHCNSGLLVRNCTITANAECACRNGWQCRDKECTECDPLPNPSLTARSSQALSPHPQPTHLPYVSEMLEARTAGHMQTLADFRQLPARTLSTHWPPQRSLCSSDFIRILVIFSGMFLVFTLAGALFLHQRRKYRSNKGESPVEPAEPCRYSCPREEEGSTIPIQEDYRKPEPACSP
Protocol: (§1) The hCD27 variants that were tested are listed. Amino acids correspond to the UniProt P26842-1 sequence. Amino acids 1-20 constitute the signal peptide. Binding is expressed as the geometric mean of the FITC signal, relative to antibody binding to hCD27, which was set at 100%.
(§2) The ability of several anti-hCD27 antibodies to bind to a series of hCD27 alanine mutants was determined using CHO-K1 cells, transiently transfected pCI-neo empty vector, pCI-neo.hCD27 and several pCI-neo.CD27Ala mutant constructs.
(§3) Detached cells were transferred to 96 wells round-bottomed well plates at approximately 1.2×10⁵ cells/well. After spinning down the cells, discarding the supernatants and re-suspending the cells in the residual volume, the primary antibodies were added and incubated for 30 minutes at 4° C. Cells were washed three times with DPBS/BSA 1%, followed by centrifugation, discarding of the supernatants and re-suspension in the residual volume. […] After washing once, antibody binding was detected using the HTS plate reader (FACS Canto II) and FlowJo software for data analysis. Debris, dead cells and doublets were excluded from the analysis. Binding was expressed as the geometric mean of the FITC signal, relative to antibody binding to hCD27, which was set at 100%.

Q91A = molecular target: T2, Q91A; assay: flow cytometry on CHO-K1 transfectants;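 note: Anti-hCD27 antibodies tested on transiently transfected CHO-K1 cells bearing hCD27 alanine mutants, 30 min at 4 °C primary incubation, FITC readout excluding debris, dead cells and doublets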
T2 construct: also called hCD27 Q91A
T2 receptor chain: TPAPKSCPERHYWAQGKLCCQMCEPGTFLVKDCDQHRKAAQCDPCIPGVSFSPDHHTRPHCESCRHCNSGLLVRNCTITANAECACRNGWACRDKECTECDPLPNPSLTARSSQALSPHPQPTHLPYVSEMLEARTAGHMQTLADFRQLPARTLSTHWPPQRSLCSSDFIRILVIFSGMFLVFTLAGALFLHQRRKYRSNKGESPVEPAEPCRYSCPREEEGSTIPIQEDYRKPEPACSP
Protocol: as §1, §2, §3

human CD27 = molecular target: T3, human CD27 (human, UniProt P26842 21-260); assay: flow cytometry MFI, CD8+ T cells of human PBMC, N=2 donors
T3 construct: also called hCD27; HsCD27
Protocol: Labeled cells were washed by re-suspending them in 150 ul of staining buffer (SB) followed by centrifugation at 300 g for 5 minutes. Cells were then resuspended in 100 ul of SB containing primary anti-CD27 antibodies at various concentrations, incubated in the dark at 4° C. for 30 minutes, followed by washing and centrifugation steps as previously described. […] Cells were incubated for 30 minutes at 4° C. in the dark, followed by washing and centrifugation steps. Next, cells were stained with a cocktail of phenotypic antibodies for surface markers (CD3, CD4, CD8, CD11b) and incubated for 30 minutes at 4° C. in the dark, followed by washing and centrifugation steps. […] Samples were acquired in a LSR-Fortessa flow cytometer (BD Biosciences) using the high throughput sampler and data analyzed by FlowJo software (Tree Star Inc).

K38A = molecular target: T4, K38A; assay: flow cytometry on CHO-K1 transfectants, right sub-column, cell hatched (loss of binding)
T4 construct: also called hCD27 K38A
T4 receptor chain: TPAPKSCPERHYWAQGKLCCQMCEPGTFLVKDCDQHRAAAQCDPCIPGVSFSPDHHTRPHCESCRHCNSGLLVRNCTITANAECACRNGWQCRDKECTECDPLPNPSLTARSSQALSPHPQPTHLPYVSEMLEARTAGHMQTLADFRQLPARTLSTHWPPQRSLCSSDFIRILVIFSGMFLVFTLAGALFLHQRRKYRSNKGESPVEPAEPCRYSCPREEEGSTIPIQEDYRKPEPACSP
Protocol: as §1, §2, §3

H36A = molecular target: T5, H36A; assay: as above
T5 construct: also called hCD27 H36A
T5 receptor chain: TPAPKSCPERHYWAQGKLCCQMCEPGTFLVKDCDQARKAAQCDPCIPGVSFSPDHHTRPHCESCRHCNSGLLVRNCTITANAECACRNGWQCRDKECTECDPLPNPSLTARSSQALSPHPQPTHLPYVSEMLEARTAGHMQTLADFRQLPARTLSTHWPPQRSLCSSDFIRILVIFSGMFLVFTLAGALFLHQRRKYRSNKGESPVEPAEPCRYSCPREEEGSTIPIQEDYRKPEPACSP
Protocol: as §1, §2, §3

P8A = molecular target: T6, P8A; assay: as above
T6 construct: also called hCD27 P8A
T6 receptor chain: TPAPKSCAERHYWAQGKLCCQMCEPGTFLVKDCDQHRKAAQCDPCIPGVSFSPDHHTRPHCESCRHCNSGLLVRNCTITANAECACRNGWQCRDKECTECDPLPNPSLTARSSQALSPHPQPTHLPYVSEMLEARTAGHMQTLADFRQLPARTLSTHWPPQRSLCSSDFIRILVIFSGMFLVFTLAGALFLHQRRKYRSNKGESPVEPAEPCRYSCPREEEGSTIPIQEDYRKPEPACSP
Protocol: as §1, §2, §3

R37A = molecular target: T7, R37A; assay: as above
T7 construct: also called hCD27 R37A
T7 receptor chain: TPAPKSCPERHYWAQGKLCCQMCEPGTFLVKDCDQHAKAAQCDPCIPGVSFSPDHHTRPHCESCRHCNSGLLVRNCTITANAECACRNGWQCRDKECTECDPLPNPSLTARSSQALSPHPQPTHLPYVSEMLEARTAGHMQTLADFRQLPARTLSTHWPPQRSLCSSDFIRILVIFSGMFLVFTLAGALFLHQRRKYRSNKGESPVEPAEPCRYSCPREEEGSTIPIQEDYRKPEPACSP
Protocol: as §1, §2, §3

K31A = molecular target: T8, K31A; assay: flow cytometry on CHO-K1 transfectants, right sub-column
T8 construct: also called hCD27 K31A
T8 receptor chain: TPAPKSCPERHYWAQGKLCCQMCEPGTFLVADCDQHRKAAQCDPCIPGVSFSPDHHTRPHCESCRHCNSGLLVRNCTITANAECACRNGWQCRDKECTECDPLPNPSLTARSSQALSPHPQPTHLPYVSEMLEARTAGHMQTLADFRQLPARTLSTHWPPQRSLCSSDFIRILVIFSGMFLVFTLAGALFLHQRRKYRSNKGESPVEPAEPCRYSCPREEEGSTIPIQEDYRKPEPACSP
Protocol: as §1, §2, §3

I46A = molecular target: T9, I46A; assay: as above
T9 construct: also called hCD27 I46A
T9 receptor chain: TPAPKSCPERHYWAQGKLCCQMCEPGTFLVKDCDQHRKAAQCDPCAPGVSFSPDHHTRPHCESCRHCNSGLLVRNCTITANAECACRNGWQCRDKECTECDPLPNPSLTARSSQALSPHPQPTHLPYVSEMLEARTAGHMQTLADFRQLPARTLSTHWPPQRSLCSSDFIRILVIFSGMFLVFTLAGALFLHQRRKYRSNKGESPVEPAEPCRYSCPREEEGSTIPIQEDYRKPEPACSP
Protocol: as §1, §2, §3

N88A = molecular target: T10, N88A; assay: as above
T10 construct: also called hCD27 N88A
T10 receptor chain: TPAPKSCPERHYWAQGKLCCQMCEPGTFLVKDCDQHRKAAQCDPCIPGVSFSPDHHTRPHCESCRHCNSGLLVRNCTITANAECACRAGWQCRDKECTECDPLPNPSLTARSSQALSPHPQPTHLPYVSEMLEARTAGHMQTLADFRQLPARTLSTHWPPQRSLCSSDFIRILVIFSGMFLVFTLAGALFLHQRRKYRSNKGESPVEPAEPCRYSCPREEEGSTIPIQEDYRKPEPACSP
Protocol: as §1, §2, §3

Binder	binding, WT hCD27 = 100 (GM FITC) (K17A)	binding, WT hCD27 = 100 (GM FITC) (Q91A)	EC50 (human CD27)	binding, WT hCD27 = 100 (GM FITC) (K38A)	binding, WT hCD27 = 100 (GM FITC) (H36A)	binding, WT hCD27 = 100 (GM FITC) (P8A)	binding, WT hCD27 = 100 (GM FITC) (R37A)	binding, WT hCD27 = 100 (GM FITC) (K31A)	binding, WT hCD27 = 100 (GM FITC) (I46A)	binding, WT hCD27 = 100 (GM FITC) (N88A)
B1	120%	136%								
B2			19.4 pM	11.8%	10.8%	15.9%	9.6%	134%	75%	124%
